How the values were obtained:
[1] = target: T1, taxol-stabilized microtubules (α-/β-tubulin) (bovine, UniProt P81947 1-451; Q6B856 1-445); experiment: co-sedimentation; Kd determination: 0-10 μM taxol-stabilized microtubules (tubulin dimer), 1 μM BSA, 1 μM protein of interest; 25 mM Hepes pH 7.5, 150 mM NaCl, 1 mM MgCl2, 1 mM EGTA, 2 mM DTE; 10 min room temperature; 350,000 g, 25 °C; gel densitometry, quadratic fit; apparent Kd; details: both partners purified
T1 construct: α-tubulin, named α-1B tubulin in the cross-linking analysis; β-tubulin, named β-2B tubulin in the cross-linking analysis; Polymer of α/β-tubulin dimers; Bought tubulin is likely a mixture of isotypes; In the polymerization assay (functional rows) the same tubulin was used unpolymerized; also called MTs; α-1B and β-2B tubulin; source: bought: Cytoskeleton, Inc; polymerized according to …

[2] = target: the molecule itself; experiment: AUC + cross-linking; sedimentation velocity, 42,000 r.p.m., 20 °C, 20 mM Hepes pH 7.5, 300 mM NaCl, 10% glycerol, 2 mM DTE; cross-linking conditions not told (Supplementary Fig. 3)

T1 sequence (P81947 whole entry, chain 1 of 2): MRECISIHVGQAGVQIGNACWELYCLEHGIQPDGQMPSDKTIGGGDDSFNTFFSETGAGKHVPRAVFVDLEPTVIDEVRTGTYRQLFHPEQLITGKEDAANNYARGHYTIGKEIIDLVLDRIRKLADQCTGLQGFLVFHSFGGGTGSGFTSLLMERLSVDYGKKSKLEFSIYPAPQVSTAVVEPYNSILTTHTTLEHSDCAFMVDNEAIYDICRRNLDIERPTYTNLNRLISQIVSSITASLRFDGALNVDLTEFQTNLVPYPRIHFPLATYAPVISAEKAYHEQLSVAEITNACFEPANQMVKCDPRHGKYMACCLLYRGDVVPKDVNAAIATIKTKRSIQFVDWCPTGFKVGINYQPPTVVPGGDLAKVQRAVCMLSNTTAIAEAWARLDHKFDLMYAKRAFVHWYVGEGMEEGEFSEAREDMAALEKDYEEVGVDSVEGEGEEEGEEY
T1 sequence (Q6B856 whole entry, chain 2 of 2): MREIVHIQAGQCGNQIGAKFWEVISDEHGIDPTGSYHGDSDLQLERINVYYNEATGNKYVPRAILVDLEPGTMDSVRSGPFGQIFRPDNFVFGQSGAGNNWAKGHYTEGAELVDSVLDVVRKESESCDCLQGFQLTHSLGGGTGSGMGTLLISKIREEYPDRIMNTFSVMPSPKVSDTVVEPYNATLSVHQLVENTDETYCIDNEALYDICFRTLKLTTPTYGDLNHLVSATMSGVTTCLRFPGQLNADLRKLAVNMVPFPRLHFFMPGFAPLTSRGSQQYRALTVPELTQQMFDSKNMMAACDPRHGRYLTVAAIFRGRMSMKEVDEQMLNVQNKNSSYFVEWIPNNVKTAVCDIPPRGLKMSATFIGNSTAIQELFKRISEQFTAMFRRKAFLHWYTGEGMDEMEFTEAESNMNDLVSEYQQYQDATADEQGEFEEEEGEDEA

B1: SKAP^159–225 (domain or fragment, human, UniProt Q9Y448 159-225, looked up)
chain: VRKGYKPLSKQKSEEELKDKNQLLEAVNKQLHQKLTETQGELKDLTQKVELLEKFRDNCLAILESKG
notes: Small kinetochore-associated protein (SKAP); source: E. coli OverExpress C41 (DE3), purified (GSTrap FF, HiTrap Q FF, Superdex 200); not shown: GST, N-terminal, cleaved
Kd [1]: ~2500 nM

B2: SKAP^103–225 (domain or fragment, human, UniProt Q9Y448 103-225, looked up)
chain: TQTRATSKSLLPVRSKEVDVSKQLHSGGPENDVTKITKLRRENGQMKATDTATRRNVRKGYKPLSKQKSEEELKDKNQLLEAVNKQLHQKLTETQGELKDLTQKVELLEKFRDNCLAILESKG
notes: Small kinetochore-associated protein (SKAP)
binding result [1]: binds

B3: SKAP^159–316:Astrin^482–850 complex (complex, human)
chain 1: VRKGYKPLSKQKSEEELKDKNQLLEAVNKQLHQKLTETQGELKDLTQKVELLEKFRDNCLAILESKGLDPALGSETLASRQESTTDHMDSMLLLETLQEELKLFNETAKKQMEELQALKVKLEMKEERVRFLEQQTLCNNQVNDLTTALKEMEQLLEM
chain 2: NKLQHLKESHEMGQALQQARNVMQSWVLISKELISLLHLSLLHLEEDKTTVSQESRRAETLVCCCFDLLKKLRAKLQSLKAEREEARHREEMALRGKDAAEIVLEAFCAHASQRISQLEQDLASMREFRGLLKDAQTQLVGLHAKQEELVQQTVSLTSTLQQDWRSMQLDYTTWTALLSRSRQLTEKLTVKSQQALQERDVAIEEKQEVSRVLEQVSAQLEECKGQTEQLELENSRLATDLRAQLQILANMDSQLKELQSQHTHCAQDLAMKDELLCQLTQSNEEQAAQWQKEEMALKHMQAELQQQQAVLAKEVRDLKETLEFADQENQVAHLELGQVECQLKTTLEVLRERSLQCENLKDTVENLTA
notes: Small kinetochore-associated protein (SKAP); Stoichiometry of the complex was not determined (AUC thwarted by limited solubility); also called SKAP:Astrin complex; source: Tnao38 insect cells (baculovirus), co-expressed, purified (HisTrap FF, Superose 6)
Kd [1]: ~1600 nM

B4: SKAP^159–316 (expressed alone in E. coli) (domain or fragment, human, UniProt Q9Y448 159-316, looked up)
chain: VRKGYKPLSKQKSEEELKDKNQLLEAVNKQLHQKLTETQGELKDLTQKVELLEKFRDNCLAILESKGLDPALGSETLASRQESTTDHMDSMLLLETLQEELKLFNETAKKQMEELQALKVKLEMKEERVRFLEQQTLCNNQVNDLTTALKEMEQLLEM
notes: as for B1
binding result [1]: binds

B5: SKAP^135–225 2A mutant (K161A, K164A) (domain or fragment, human, UniProt Q9Y448 135-225, looked up)
chain: VTKITKLRRENGQMKATDTATRRNVRAGYAPLSKQKSEEELKDKNQLLEAVNKQLHQKLTETQGELKDLTQKVELLEKFRDNCLAILESKG
notes: Small kinetochore-associated protein (SKAP); source: E. coli OverExpress C41 (DE3), purified (GSTrap FF, HiTrap Q FF, Superdex 200)
fold reduction of microtubule-binding affinity against wild type [1]: ~4 fold

B6: SKAP^135–225 (domain or fragment, human, UniProt Q9Y448 135-225, looked up)
chain: VTKITKLRRENGQMKATDTATRRNVRKGYKPLSKQKSEEELKDKNQLLEAVNKQLHQKLTETQGELKDLTQKVELLEKFRDNCLAILESKG
notes: Small kinetochore-associated protein (SKAP); Behaved as a trimer in AUC and cross-linking; also called WT; source: E. coli OverExpress C41 (DE3), purified (GSTrap FF, HiTrap Q FF, Superdex 200)
stoichiometry N [2]: 3 | Kd [1]: ~580 nM

B7: SKAP^135–225 4A mutant (K140A, K149A, K161A, K164A) (domain or fragment, human, UniProt Q9Y448 135-225, looked up)
chain: VTKITALRRENGQMAATDTATRRNVRAGYAPLSKQKSEEELKDKNQLLEAVNKQLHQKLTETQGELKDLTQKVELLEKFRDNCLAILESKG
notes: as for B5
fold reduction of microtubule-binding affinity against wild type [1]: ~31 fold

From publication PMC4843017, “Molecular requirements for the inter-subunit interaction and kinetochore recruitment of SKAP and Astrin” (Nature Communications, 2016)
